# Laboratory results as given in paper PMC4807222 (Structure (London, England : 1993), 2015).
# B1: c-Myc_(1–88) (domain or fragment, human, UniProt P01106-1 1-88, looked up)
# chain: MPLNVSFTNRNYDLDYDSVQPYFYCDEEENFYQQQQQSELQPPAPSEDIWKKFELLPTPPLSPSRRSGLCSPSYVAVTPFSLRGDNDG
# B2: pSer62-c-Myc_(1–88) (domain or fragment, human, UniProt P01106-1 1-88, looked up)
# chain: B1 chain
# modifications: phosphoserine at 62
# B3: Pin1_(PPIase) (50–163) (domain or fragment, human, UniProt Q13526 50-163, looked up)
# chain: GEPARVRCSHLLVKHSQSRRPSSWRQEKITRTKEEALELINGYIQKIKSGEEDFESLASQFSDCSSAKARGDLGAFSRGQMQKPFEDASFALRTGEMSGPVFTDSGIHIILRTE
# What was measured:
# [1] = target: B1; assay: SPR
# [2] = target: T1, full-length Pin1 (1–163) (human, UniProt Q13526 1-163); assay: SPR
# T1 sequence (Q13526 whole entry): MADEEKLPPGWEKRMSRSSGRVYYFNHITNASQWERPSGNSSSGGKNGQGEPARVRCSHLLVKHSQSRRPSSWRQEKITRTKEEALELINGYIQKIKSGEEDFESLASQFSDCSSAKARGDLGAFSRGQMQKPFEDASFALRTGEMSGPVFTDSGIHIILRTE
# [3] = target: T1, full-length Pin1 (1–163); assay: ITC
fold weaker affinity than intact Pin1 [1] [fold],Binder,other results
> 10,"KLPPGWEKRMSRSSGRVYYFNHITNASQWERPSG (domain or fragment, human, UniProt Q13526 6-39, looked up) [Pin1WW (6–39)]",–
–,B1,Kd [2]: 4 µM
–,B2,Kd [3]: 10 to 100 µM
> 10,B3,–
